Measurements from patent publication US7727960B2, “C5a receptor antagonists” (Jerini AG, priority 2003, dated 2010).

Target: T1, human C5aR (CD88) (human, UniProt P21730 1-350)
T1 sequence (looked up): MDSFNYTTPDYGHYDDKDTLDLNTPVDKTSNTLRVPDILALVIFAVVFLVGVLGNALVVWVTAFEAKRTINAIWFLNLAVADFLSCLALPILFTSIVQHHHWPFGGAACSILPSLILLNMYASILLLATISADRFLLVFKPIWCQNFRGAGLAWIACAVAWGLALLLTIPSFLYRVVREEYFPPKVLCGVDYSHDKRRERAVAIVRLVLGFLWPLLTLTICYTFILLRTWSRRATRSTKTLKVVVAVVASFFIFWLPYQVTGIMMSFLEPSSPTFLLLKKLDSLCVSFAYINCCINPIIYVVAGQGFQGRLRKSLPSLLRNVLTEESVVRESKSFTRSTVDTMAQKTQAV
Experiment: cell-based or functional assay

| IC50 activity group, enzyme release assay [µM] | IC50, functional assay [µM] | EC50, agonistic activity, enzyme release assay [µM] | Substance |
| --- | --- | --- | --- |
| < 0.2 |  |  | Ac-Phe-Orn-Pro-hle-Bta-phe-OH (peptide) |
| < 0.2 |  |  | Ac-Phe-Orn-Pro-hle-Mcf-2Ni-NH2 (peptide) |
| < 0.05 |  |  | H2N-CO-Phe-Orn-Pro-cha-Bta-Phe-NH2 (peptide) |
| < 0.2 |  |  | Ac-Phe-Orn-Pro-cha-1Ni-Phe-NH2 (peptide) |
| < 0.2 |  |  | H-Phe-[Orn-Ser-hle-Pff-Phe] (peptide) |
| < 0.2 |  |  | Ac-Phe-Orn-Pro-hle-Pff-2Ni-NH2 (peptide) |
| < 0.2 |  |  | Ac-Phe-Orn-Pro-hle-Eaa-Phe-NH2 (peptide) |
| < 0.05 | 0.025 |  | Ac-Phe-[Orn-NMeAla-cha-Trp-Arg] (peptide) |
| < 0.2 |  |  | Ac-Phe-[Orn-Pro-cha-Pff-Nle] (peptide) |
| < 0.2 |  |  | H-Phe-[Lys-Hyp-hle-Pff-Nle] (peptide) |
| < 0.2 |  |  | Ac-Phe-Orn-Chy-cha-Bta-Phe-NH2 (peptide) |
| < 0.2 |  |  | Ac-Phe-Orn-Pro-hle-Bta-2Ni-NH2 (peptide) |
| < 0.2 |  |  | Ac-Phe-Orn-Pro-hle-Mcf-Pff-NH2 (peptide) |
| < 0.2 |  |  | Ac-Phe-Orn-Pro-hle-Pff-Phe-NH2 (peptide) |
| < 0.2 |  |  | H-Bal-Phe-[Orn-Pro-hle-Pff-Nle] (peptide) |
| < 0.05 |  |  | Ac-Phe-Orn(Ac)-Aze-cha-Bta-Phe-NH2 (peptide) |
| < 0.05 |  |  | Ac-Ala-Phe-Orn-Aze-cha-Bta-Phe-NH2 (peptide) |
| < 0.05 |  |  | H-Phe-[Orn-Hyp-hle-Trp-Nle] (peptide) |
| < 0.05 |  | > 1.43 | H-Phe-[Orn-Ser-cha-Trp-Nle] (peptide) |
| < 0.2 |  |  | Ac-Phe-Orn-Pro-ctb-Mcf-Phe-NH2 (peptide) |
| < 0.2 |  |  | Ac-Phe-Orn-Pro-hle-Ocf-Phe-NH2 (peptide) |
| < 0.2 |  |  | Ac-Phe-Orn-Pro-hle-6FW-Phe-NH2 (peptide) |
| < 0.02 |  |  | Ac-Gly-Phe-Orn-Aze-cha-Bta-Phe-NH2 (peptide) |
| < 0.02 |  |  | Ac-Lys-Phe-Orn-Aze-cha-Bta-Phe-NH2 (peptide) |

| IC50 activity group, enzyme release assay [µM] | IC50, functional assay [µM] | EC50, agonistic activity, enzyme release assay [µM] | Substance |
| --- | --- | --- | --- |
| < 0.2 |  |  | Ac-Phe-Nle-Pro-cha-Bta-Phe-NH2 (peptide) |
| < 0.05 |  |  | H-Phe-[Orn-Hyp-cha-Trp-Phe] (peptide) |
| < 0.2 |  |  | Ac-Phe-Orn-Aze-cha-Mcf-Phe-NH2 (peptide) |
| < 0.2 |  |  | Ac-Phe-Orn-Pro-hle-Mcf-Phe-NH2 (peptide) |
| < 0.2 |  |  | H-Phe-[Orn-Pro-hle-Pff-Nle] (peptide) |
| < 0.2 |  |  | Ac-Mff-Orn-Pro-hle-Mcf-Mff-NH2 (peptide) |
| < 0.2 |  |  | Ac-Phe-Orn-Pro-hle-Bta-Tyr-NH2 (peptide) |
| < 0.2 |  |  | Ac-Phe-Cit-Ser-hle-Bta-Phe-NH2 (peptide) |
| < 0.05 |  |  | Ac-Phe-Bta-Aze-cha-Bta-Phe-NH2 (peptide) |
| < 0.2 |  |  | H-Phe-[Orn-Hyp-hle-Pff-Hle] (peptide) |
| < 0.05 |  |  | Ac-Phe-Orn-Pro-hle-1Ni-Phe-NH2 (peptide) |
| < 0.2 |  |  | Ac-Phe-Orn-Pro-cha-Bta-1Ni-NH2 (peptide) |
| < 0.05 |  |  | Ac-Phe-Dab-Aze-cha-Bta-Phe-NH2 (peptide) |
| < 0.05 |  |  | H-Phe-[Orn-Hyp-hle-Trp-Phe] (peptide) |
| < 0.05 |  |  | Ac-Pff-Orn-Pro-cha-Bta-Phe-NH2 (peptide) |
| < 0.2 |  |  | Ac-Phe-Orn-Pro-hle-Otf-Phe-NH2 (peptide) |
| < 0.05 |  |  | Ac-Phe-Har-Pro-cha-Bta-Phe-NH2 (peptide) |
| < 0.05 |  |  | Ac-Phe-Fcp-Aze-cha-Bta-Phe-NH2 (peptide) |
| < 0.02 |  |  | Ac-Phe-Dab-Pro-cha-Bta-Phe-NH2 (peptide) |
| < 0.2 |  |  | Ac-Thi-[Orn-Pro-hle-Bta-Phe] (peptide) |
| < 0.2 |  |  | Ac-Guf-Phe-Orn-Aze-cha-Bta-Phe-NH2 (peptide) |
| < 0.05 |  |  | Ac-Phe-Orn-Pro-cha-Bta-2Ni-NH2 (peptide) |
| < 0.2 |  |  | Ac-Pff-Orn-Pro-hle-Mcf-Pff-NH2 (peptide) |
| < 2 |  |  | Ac-Phe-Orn-Aze-cha-Bta-NH-CH2-CH2-Ph (peptide) |

| IC50 activity group, enzyme release assay [µM] | IC50, functional assay [µM] | EC50, agonistic activity, enzyme release assay [µM] | Substance |
| --- | --- | --- | --- |
| < 0.2 |  |  | Ac-Phe-Orn-Pro-hle-Bta-Eaa-NH2 (peptide) |
| < 0.02 |  |  | Ac-Phe-Fcn-Pro-cha-Bta-Phe-NH2 (peptide) |
| < 0.05 |  |  | CH3CH2CO-Phe-Orn-Pro-cha-Bta-Phe-NH2 (peptide) |
| < 0.2 |  |  | Ac-Phe-Ech-Pro-cha-Bta-Phe-NH2 (peptide) |
| < 0.2 |  |  | H-Phe-[Orn-NMS-hle-Pff-Phe] (peptide) |
| < 0.05 |  |  | H-Phe-[Orn-Pro-hle-Mcf-Phe] (peptide) |
| < 0.2 |  |  | Ac-Phe-Orn-Pro-hle-Pff-Mmy-NH2 (peptide) |
| < 0.05 |  |  | Ac-Phe-[Orn-Hyp-hle-Trp-Phe] (peptide) |
| < 0.2 |  |  | Ac-Phe-Orn-Hse-cha-Bta-Phe-NH2 (peptide) |
| < 2 |  |  | Ac-Phe-Orn-Aze-cha-Pcf-Phe-NH2 (peptide) |
| < 0.2 |  |  | Ac-Phe-OrA-Pro-cha-Bta-Phe-NH2 (peptide) |
| < 0.05 |  | > 100 | Ac-Phe-Orn-Aze-cha-Trp-Phe-NH2 (peptide) |
| < 0.2 |  |  | H-Phe-[Orn-Hyp-hle-Pff-Chg] (peptide) |
| < 0.2 |  |  | Ac-Phe-[Orn-Pip-hle-Bta-Phe] (peptide) |
| < 0.2 |  |  | Ac-Phe-[Orn-Hyp(COCH2OCH2CH2OCH2CH2OCH3)-cha-Trp-Nle] (peptide) |
| < 0.05 |  |  | Ac-Phe-Ffa-Pro-cha-Bta-Phe-NH2 (peptide) |
| < 0.05 |  |  | Ac-Phe-Orn-Pro-ctb-Pff-Phe-NH2 (peptide) |
| < 0.05 |  | > 100 | Ac-Thi-Orn-Pip-cha-Bta-Phe-NH2 (peptide) |
| < 0.2 |  |  | H-Bal-Phe-[Orn-Hyp-hle-Trp-Nle] (peptide) |
| < 0.2 |  |  | H-Phe-[Orn-Hyp-hle-Pff-Phe] (peptide) |
| < 0.2 |  |  | Ac-Phe-Dap-Pro-cha-Bta-Phe-NH2 (peptide) |
| < 0.2 |  |  | H-Phe-[Orn-Hyp-hle-Pff-Leu] (peptide) |
| < 0.2 |  |  | Ac-Phe-[Orn-HyA-cha-Trp-Phe] (peptide) |
| < 0.05 |  |  | FAc-Phe-Orn-Pro-cha-Bta-Phe-NH2 (peptide) |

| IC50 activity group, enzyme release assay [µM] | IC50, functional assay [µM] | EC50, agonistic activity, enzyme release assay [µM] | Substance |
| --- | --- | --- | --- |
| < 0.2 |  |  | Ac-Thi-Orn-Pro-cha-Trp-Phe-NH2 (peptide) |
| < 0.2 |  |  | Ac-Phe-[Orn-Pro-hle-Bta-Nle] (peptide) |
| < 0.02 |  |  | Ac-Phe-Ffa-Pro-hle-Bta-Phe-NH2 (peptide) |
| < 0.2 |  |  | Ac-Phe-OrE-Pro-cha-Bta-Phe-NH2 (peptide) |
| < 0.05 |  | > 100 | Ac-Phe-Orn-Pro-cha-Bta-Phe-NH2 (peptide) |
| < 0.2 |  |  | Ac-Phe-Orn-Pro-hle-Pff-Cha-NH2 (peptide) |
| < 0.05 |  |  | Ac-Off-Orn-Pro-cha-Bta-Phe-NH2 (peptide) |
| < 2 |  |  | Ac-Phe-Orn-Tic-cha-Trp-Phe-OH (peptide) |
| < 0.05 |  |  | Ac-Phe-Orn-Pro-hle-Mcf-Cha-NH2 (peptide) |
| < 0.2 |  |  | Ac-Phe-[Orn-Tic-cha-Trp-Nle] (peptide) |
| < 0.2 |  |  | Ac-Phe-Orn-Pro-hle-Bta-5Ff-NH2 (peptide) |
| < 0.2 |  |  | Ac-Dab-Phe-Orn-Aze-cha-Bta-Phe-NH2 (peptide) |
| < 0.2 |  |  | Ac-Phe-Orn-Pro-hle-Egy-Phe-NH2 (peptide) |
| < 0.05 |  |  | Ac-Hyp-Phe-Orn-Aze-cha-Bta-Phe-NH2 (peptide) |
| < 0.2 |  |  | Ac-Phe-Orn-Hyp-hle-Bta-Phe-NH2 (peptide) |
| < 0.2 |  |  | Ac-Phe-Orn-Pro-hle-Bta-Pcf-NH2 (peptide) |
| < 0.05 |  |  | H-Phe-[Orn-Ser-hle-Pff-Nle] (peptide) |
| < 0.2 |  |  | H-Phe-[Orn-Pro-hle-Ocf-Phe] (peptide) |
| < 0.05 |  |  | H-Phe-[Orn-Hyp-hle-Trp-Leu] (peptide) |
| < 0.2 |  |  | H-Phe-[Orn-Hyp-hle-Trp-Hle] (peptide) |
| < 0.05 |  |  | Ac-Phe-Orn-Pro-cha-Bta-Pcf-NH2 (peptide) |
| < 0.2 |  |  | Ac-Phe-[Orn-Hyp-hle-Bta-Phe] (peptide) |
| < 0.2 |  |  | Ac-Phe-Orn-NMA-cha-Bta-Phe-NH2 (peptide) |
